In article PMC7598476 (2020):

B1: MPE8 monoclonal antibody (recombinant, human IgG1) (antibody, V domains shown)
VH: EVQLVESGGGLVKPGGSLRLSCAASGFTFSSYSMNWVRQAPGKGLEWVSSISSSSSYIYYADSVKGRFTISRDNAKNSLYLQMNSLRAEDTAVYYCARARATGYNSITPYFDIWGQGTLVTVSS
VL: QSVVTQTPSVSGAPGQRVTISCTGSSSNIGAGYDVHWYQQLPGTAPKLLIYDNNNRPSGVPDRFSASKSGTSASLAITGLQAEDEADYYCQSYDRSLSGVFGTGTKVTVL
B2: MPV458 human monoclonal antibody (antibody, V domains shown)
VH: QGKLVESGGGVIQPGRSLRLSCAASGFDFSRYGLHWVRQAPGKGLEWVAVIVYAGSNKYYADSVKGRFTISKDNSKNTMHLQMSDLRTEDTAVYYCARDQAFDLWGQGTMVTVSS
VL: DIQMTQSPASLSASVGDRVTITCQASQGISRSVNWYQQKPGKAPKLLIFDASHLERGVPSRFSGSGYGTDFTFTISSLQPEDIATYYCQQYDNLRISFGQGTRLEIK
B3: MPV458 Fab (Fab, V domains shown)
VH: B2 VH
VL: B2 VL

Key:
[1] = target: monomeric hMPV B2 F protein, treated with trypsin (human metapneumovirus (subgroup B2)); assay: ELISA
[2] = target: recombinant hMPV B2 F protein (human metapneumovirus (subgroup B2)); assay: ELISA
[3] = target: post-fusion trimeric hMPV B2 F (trypsin treated) (human metapneumovirus (subgroup B2)); assay: ELISA
[4] = target: hMPV F protein of subgroup A1 (ELISA panel) (human metapneumovirus (subgroup A1)); assay: ELISA
[5] = target: hMPV F protein of subgroup A2 (ELISA panel) (human metapneumovirus (subgroup A2)); assay: ELISA
[6] = target: hMPV F protein of subgroup B1 (ELISA panel) (human metapneumovirus (subgroup B1)); assay: ELISA
[7] = target: hMPV B2 F GCN4; assay: ELISA
[8] = target: biotinylated monomeric hMPV B2 F protein (human metapneumovirus (subgroup B2), biotin (site not stated)); assay: BLI

Row | Binder | EC50 [1] | EC50 [2] | EC50 [3] | EC50 [4] | EC50 [5] | EC50 [6] | EC50 [7] | koff [8]
1 | B1 | 0.63 µg/mL | 2 µg/mL | 1.3 µg/mL | 1.3 µg/mL | 4.3 µg/mL | 3.1 µg/mL | 4.7 µg/mL | 
2 | B2 | 0.027 µg/mL | 0.12 µg/mL | 0.13 µg/mL | 0.33 µg/mL | 0.39 µg/mL | 0.39 µg/mL | 0.2 µg/mL | 
3 | B3 |  |  |  |  |  |  |  | 8.4e-05 s⁻¹
